Assay [1] has as its target PD-1 (on Jurkat T Cell).
The target in assay [2] is PD-1 (on Jurkat T Cell). This is another data set of the same source.
In assay [3] the target is Human PD-L2-HIS (human) (UniProt Q9BQ51). Put plainly: Octet binning; competitor MIH18. In general terms: In BLI a coated tip is dipped into the sample, and binding shifts an interference pattern.
The target is the same in assay [4]. Put plainly: Octet binning; competitor PDL2-21.
For assay [5] the target is unchanged. Put plainly: Octet binning; competitor PDL2-23.
Assay [6] has the same target. The assay can be described thus: Octet binning; competitor 24F.10C12.
Assay [7] shares this target. Put plainly: Octet binning; competitor BiPDL4-11.
For assay [8] the target is unchanged. The assay can be described thus: Octet binning; competitor BiPDL4-12.
The target is the same in assay [9]. The assay can be described thus: Octet binning; competitor BiPDL4-13.
Assay [10] has the same target. The assay can be described thus: Octet binning; competitor BiPDL4-14.
For assay [11] the target is unchanged. The assay can be described thus: Octet binning; competitor PDL2-13 (column 7).
Assay [12] has the same target. Put plainly: Octet binning; competitor PDL2-13 (column 11).

Chain of Human PD-L2-HIS (human) (Q9BQ51 20-220): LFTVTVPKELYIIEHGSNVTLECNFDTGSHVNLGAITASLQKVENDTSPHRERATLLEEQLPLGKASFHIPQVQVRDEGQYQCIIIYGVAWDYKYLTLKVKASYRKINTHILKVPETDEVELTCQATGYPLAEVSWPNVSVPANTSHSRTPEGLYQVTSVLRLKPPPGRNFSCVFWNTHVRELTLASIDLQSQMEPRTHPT

Take Keytruda (antibody): in the assay with PD-1 (on Jurkat T Cell) [1], the EC50 (read off the curve); Fold induction of luciferase, Promega: CHO-PD-L1/PD-L2 dual cells with PD-1 Jurkat reporter cells was determined as 0.7 nM. In the assay with PD-1 (on Jurkat T Cell) [2], the EC50 (read off the curve); Luc Activity, Promega CHO-PDL1/PD-L2 dual cells with NFAT-Luc Jurkat T cells came out at 2 nM.

For the substance MIH18 (antibody), the % of unblocked Ab2 binding signal was 5.73% with Human PD-L2-HIS (human) [3]; 74.7% with Human PD-L2-HIS (human) [4]; 70.3% with Human PD-L2-HIS (human) [5]; 71.4% with Human PD-L2-HIS (human) [6]; 47.9% with Human PD-L2-HIS (human) [7]; 60.6% with Human PD-L2-HIS (human) [8]. The % of unblocked Ab2 binding signal with Human PD-L2-HIS (human) [9] amounted to 57%; with Human PD-L2-HIS (human) [10], 63.4%; with Human PD-L2-HIS (human) [11], 73.7%; in the assay with Human PD-L2-HIS (human) [12], 82.5%.

Consider 24F.10C12 (antibody), for which the % of unblocked Ab2 binding signal turned out to be 63.8% with Human PD-L2-HIS (human) [3]; 5.24% with Human PD-L2-HIS (human) [4]; 5.98% with Human PD-L2-HIS (human) [5]; 4.99% in the assay with Human PD-L2-HIS (human) [6]; 50.5% with Human PD-L2-HIS (human) [7]; 57.5% in the assay with Human PD-L2-HIS (human) [8]. The % of unblocked Ab2 binding signal with Human PD-L2-HIS (human) [9] stood at 56.9%; in the assay with Human PD-L2-HIS (human) [10], 62.8%; with Human PD-L2-HIS (human) [11], 7.11%; with Human PD-L2-HIS (human) [12], 6.3%.

(Values after patent US20250059282A1.)
